Results reported in patent publication US20240116985A1 (published 2024).
Starred links: 1 amine or outer side, 2 acyl side, 3 side chain; linkers in the order of their positions; H or OH if unused. Positions of bridges follow the written chain, without caps; N, C: chain ends. Non-standard residues stand in square brackets, D forms with d. Primed or numbered codes have the meaning given here. PyrS2″ = (S)-3-amino-1-((pent-4-en-1-yloxy)carbonyl)pyrrolidine-3-carboxylic acid (stapling residue), C=CCCCOC(=O)N1CC[C@@](N[*:1])(C(=O)[*:2])C1; B5(4) = 2,2-bis(4-pentenyl)glycine = 2-amino-2-(pent-4-en-1-yl)hept-6-enoic acid (stitching residue), C=CCCCC(CCCC=C)(N[*:1])C(=O)[*:2]; B5(5) = 2,2-bis(4-pentenyl)glycine, 2-amino-2-(pent-4-en-1-yl)hept-6-enoic acid (stitching residue), C=CCCCC(CCCC=C)(N[*:1])C(=O)[*:2]; PyrS2 = (S)-3-amino-1-((pent-4-en-1-yloxy)carbonyl)pyrrolidine-3-carboxylic acid, C=CCCCOC(=O)N1CC[C@@](N[*:1])(C(=O)[*:2])C1; 5iPr3COOHF = (S)-3-(2-amino-2-carboxyethyl)-5-isopropylbenzoic acid, CC(C)c1cc(C[C@H](N[*:1])C(=O)[*:2])cc(C(=O)[*:3])c1; MorphAsn = (S)-2-amino-4-morpholino-4-oxobutanoic acid, O=C(C[C@H](N[*:1])C(=O)[*:2])N1CCOCC1; B5 = 2-amino-2-(pent-4-en-1-yl)hept-6-enoic acid, C=CCCCC(CCCC=C)(N[*:1])C(=O)[*:2]; Phe(3-CF3) = N[C@@H](Cc1cccc(C(F)(F)F)c1)C(=O)O; Phe(4-CF3) = N[C@@H](Cc1ccc(C(F)(F)F)cc1)C(=O)O; Phe(3-COOH) = N[C@@H](Cc1cccc(C(=O)O)c1)C(=O)O; Phe(2-CF3) = N[C@@H](Cc1ccccc1C(F)(F)F)C(=O)O; Phe(3,5-F2) = N[C@@H](Cc1cc(F)cc(F)c1)C(=O)O; Bta = N[C@@H](Cc1csc2ccccc12)C(=O)O; Lys(iPr) = CC(C)NCCCC[C@H](N)C(=O)O; αAllylPro = C=CC[C@@]1(C(=O)O)CCCN1; tBuAla = CC(C)(C)C[C@H](N)C(=O)O; 3Thi = N[C@@H](Cc1ccsc1)C(=O)O; Cha = N[C@@H](CC1CCCCC1)C(=O)O; S8 = C=CCCCCCC[C@](C)(N)C(=O)O; hSer = N[C@@H](CCO)C(=O)O; 34ClF = not defined here; Aib = CC(C)(N)C(=O)O

B1: I-220 (peptide)
peptide: Ac-[αAllylPro]DA[B5(4)]DEAA[Phe(3,5-F2)]V[S8]FWQ-NH2
modifications: staple 1-4, 4-11
notes: Stapled peptide composition; also called Ac-PL3-Asp-Ala-B5-Asp-Glu-Ala-Ala-35FF-Val-S8-Phe-Trp-Gln-NH2
B2: I-255 (peptide)
peptide: Ac-[αAllylPro]DA[B5(4)]DDAAFV[S8][Phe(4-CF3)]WQ-NH2
modifications: staple 1-4, 4-11
notes: Stapled peptide composition; also called Ac-PL3-Asp-Ala-B5-Asp-Asp-Ala-Ala-Phe-Val-S8-4F3MeF-Trp-Gln-NH2
B3: I-250 (peptide)
peptide: Ac-[αAllylPro]DA[B5]DDAAFV[S8][Phe(3-CF3)]WQ-NH2
modifications: staple 1-4, 4-11
notes: Stapled peptide composition; also called Ac-PL3-Asp-Ala-B5-Asp-Asp-Ala-Ala-Phe-Val-S8-3F3MeF-Trp-Gln-NH2
B4: I-254 (peptide)
peptide: XDAXDDAAFVXFWQ
modifications: not fully specified; N-terminal Ac; C-terminal NH2; PL3 at 1, B5 at 4, S8 at 11 (staples 1-4 and 4-11 by olefin metathesis); 4F3MeF at 12
notes: as for B2
B5: I-251 (peptide)
peptide: Ac-[αAllylPro]DA[B5]DDAAFV[S8][Phe(3-CF3)]WQ-NH2
modifications: staple 1-4, 4-11
notes: as for B3
B6: I-2417 (peptide)
peptide: Ac-[αAllylPro]D[tBuAla][B5(5)]NT[Aib]AFN[PyrS2″][3Thi][34ClF]Q-NH2
modifications: staple 1-4, 4-11; reading uncertain; also: printed as Ac-PL3-Asp-Npg-B5-Asn-Thr-Aib-Ala-Phe-Asn-PyrS2-3Thi-34C1F-Gln-NH2

Biological target: T1, full-length beta-Catenin (Uniprot ID P35222) (Homo sapiens (Human), UniProt P35222 2-781)
T1 construct: The AlphaScreen assay used a Histidine (Nickel Chelate) detection kit, so a His tag is likely, but no tag is described; also called B-Catenin; bCat
T1 sequence: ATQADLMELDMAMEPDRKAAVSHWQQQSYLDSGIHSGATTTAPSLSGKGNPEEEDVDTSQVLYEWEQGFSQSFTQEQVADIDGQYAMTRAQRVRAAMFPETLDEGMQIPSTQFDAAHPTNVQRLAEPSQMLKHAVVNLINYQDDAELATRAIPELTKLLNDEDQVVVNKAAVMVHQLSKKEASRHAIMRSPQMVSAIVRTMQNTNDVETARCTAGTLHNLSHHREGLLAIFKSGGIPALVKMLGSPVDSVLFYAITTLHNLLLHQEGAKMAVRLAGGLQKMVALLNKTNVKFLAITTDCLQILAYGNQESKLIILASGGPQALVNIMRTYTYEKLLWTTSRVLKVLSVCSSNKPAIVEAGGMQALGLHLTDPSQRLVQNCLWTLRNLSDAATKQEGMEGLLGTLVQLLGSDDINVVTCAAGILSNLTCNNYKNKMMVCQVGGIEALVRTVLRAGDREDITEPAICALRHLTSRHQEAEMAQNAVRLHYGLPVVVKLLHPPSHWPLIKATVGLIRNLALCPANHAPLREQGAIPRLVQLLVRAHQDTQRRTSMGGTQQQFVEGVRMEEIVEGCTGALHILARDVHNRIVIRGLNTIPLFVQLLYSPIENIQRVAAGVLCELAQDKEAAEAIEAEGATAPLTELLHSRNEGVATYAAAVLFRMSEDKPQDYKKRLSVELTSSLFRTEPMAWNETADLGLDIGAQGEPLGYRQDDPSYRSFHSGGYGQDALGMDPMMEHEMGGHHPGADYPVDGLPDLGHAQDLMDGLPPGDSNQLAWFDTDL
Assay: AlphaScreen competition: full-length beta-catenin + biotin-TCF4(10-53) probe, peptide titrated
Procedure, shortened: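 Titrated peptide was preincubated 15 minutes at 20° C, then donor and acceptor beads were added for 60 minutes at 20° C protected from light. Reads were done in duplicate, and data were fitted to a 1:1 binding model with Hill slope; concentrations are final.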

Binder	EC50 [µM]
B1	0.131
B2	1.96
B3	1.2
B4	1.96
B5	1.2

Biological target: T2, B-cat-Halo (UniProt P35222 1-781)
T2 sequence (looked up): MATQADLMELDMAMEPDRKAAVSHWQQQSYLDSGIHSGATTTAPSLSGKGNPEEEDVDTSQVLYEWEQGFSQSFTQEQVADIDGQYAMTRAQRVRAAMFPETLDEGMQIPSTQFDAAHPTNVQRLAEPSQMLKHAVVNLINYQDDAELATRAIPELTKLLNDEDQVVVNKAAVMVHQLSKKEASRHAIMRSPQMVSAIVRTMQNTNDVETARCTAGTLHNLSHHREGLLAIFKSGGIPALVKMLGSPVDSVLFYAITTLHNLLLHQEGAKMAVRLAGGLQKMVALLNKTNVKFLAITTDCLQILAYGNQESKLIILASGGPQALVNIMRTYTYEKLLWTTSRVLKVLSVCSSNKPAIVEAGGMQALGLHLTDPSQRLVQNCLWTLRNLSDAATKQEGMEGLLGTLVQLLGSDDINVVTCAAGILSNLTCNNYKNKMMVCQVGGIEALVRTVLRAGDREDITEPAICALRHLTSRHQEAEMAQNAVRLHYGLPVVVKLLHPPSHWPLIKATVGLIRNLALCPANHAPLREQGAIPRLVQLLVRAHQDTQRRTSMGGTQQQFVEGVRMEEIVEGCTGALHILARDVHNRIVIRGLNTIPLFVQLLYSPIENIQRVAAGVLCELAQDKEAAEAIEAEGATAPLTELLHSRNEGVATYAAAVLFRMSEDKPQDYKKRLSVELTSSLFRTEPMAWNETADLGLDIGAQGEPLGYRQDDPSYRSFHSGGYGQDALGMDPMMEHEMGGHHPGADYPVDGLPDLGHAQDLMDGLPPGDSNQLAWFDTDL
Assay: cell-based or functional assay

Binder	NanoBRET Abs IC50 [µM]
Ac-[αAllylPro]N[Cha][B5(5)]DQQAFL[PyrS2″]F[Bta]K-NH2 (staple 1-4, 4-11) [I-2421]	> 20
B6	21.6
Ac-[αAllylPro]D[tBuAla][B5(5)]D[5iPr3COOHF]AAFL[PyrS2″][Phe(2-CF3)][Bta]Q-NH2 (staple 1-4, 4-11) [I-2430]	4.5
Ac-[αAllylPro]N[Cha][B5(5)]DQ[Lys(iPr)]AFL[PyrS2″]F[Bta][MorphAsn]-NH2 (staple 1-4, 4-11) [I-2426]	> 20
Ac-[αAllylPro]D[Cha][B5(5)]DQ[Lys(iPr)]AFL[PyrS2″]F[Bta]K-NH2 (staple 1-4, 4-11) [I-2429]	> 20
Ac-[αAllylPro]D[tBuAla][B5(5)]D[5iPr3COOHF]QAFL[PyrS2″][Phe(2-CF3)][Bta]A-NH2 (staple 1-4, 4-11) [I-2431]	7
Ac-[αAllylPro]N[Cha][B5(5)]DQ[hSer]AFL[PyrS2″]F[Bta]K-NH2 (staple 1-4, 4-11) [I-2419]	> 20

Biological target: T3, beta-catenin in DLD1 TCF/LEF luciferase reporter cells (UniProt P35222 1-781)
T3 sequence (looked up): T2 sequence (looked up)
Assay: cell-based or functional assay

Binder	DLD1 4% Abs IC50 [µM]
Ac-[αAllylPro]D[tBuAla][B5(5)]D[Phe(3-COOH)]AAFL[PyrS2][Phe(2-CF3)][Bta]QL[dL]-NH2 (staple 1-4, 4-11) [I-2396]	1.5

Biological target: T1, full-length beta-Catenin (Uniprot ID …)
Assay: fluorescence polarization competition: full-length beta-catenin + 5FAM-TCF4(10-53) probe, peptide titrated
Procedure, shortened: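 Incubate 60 minutes at 20° C. away from light, then read polarization in duplicate. Fit to 1:1 binding with hill slope.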

Binder	EC50 [µM]
B1	2.85
B2	5
B3	5
B4	5
B5	5
